# Earlier results, collected in article PMC4246237.
# Like-named read-outs stand apart in the source and are kept apart here.
# What was measured:
# AVP (Human adenovirus 2) [1] = target: AVP (Human adenovirus 2) (UniProt P03252)
# AVP (Human adenovirus 2) [2] = target: AVP (Human adenovirus 2) (UniProt P03252); remark: listed apart in the source
# UniProt P03252, sequence (P03252 whole entry): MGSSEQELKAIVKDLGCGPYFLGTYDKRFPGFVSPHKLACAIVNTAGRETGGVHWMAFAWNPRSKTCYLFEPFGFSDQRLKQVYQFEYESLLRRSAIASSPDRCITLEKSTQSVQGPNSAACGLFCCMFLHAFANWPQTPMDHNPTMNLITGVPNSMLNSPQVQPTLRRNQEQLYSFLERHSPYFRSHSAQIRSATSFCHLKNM
substance,measurement,setting,value
pVIc pVIc (from UniProt P03274),Kd,AVP (Human adenovirus 2) [1],4.4 µM
same,Kd,AVP (Human adenovirus 2) [2],0.09 µM
